Experiments:
cynomolgus GM-CSFRα = cynomolgus GM-CSFRα (cynomolgus); assay: cell-based or functional assay
human GM-CSFRα [1] = molecular target: T1, human GM-CSFRα (human, UniProt P15509 23-400); assay: cell-based or functional assay
T1 sequence: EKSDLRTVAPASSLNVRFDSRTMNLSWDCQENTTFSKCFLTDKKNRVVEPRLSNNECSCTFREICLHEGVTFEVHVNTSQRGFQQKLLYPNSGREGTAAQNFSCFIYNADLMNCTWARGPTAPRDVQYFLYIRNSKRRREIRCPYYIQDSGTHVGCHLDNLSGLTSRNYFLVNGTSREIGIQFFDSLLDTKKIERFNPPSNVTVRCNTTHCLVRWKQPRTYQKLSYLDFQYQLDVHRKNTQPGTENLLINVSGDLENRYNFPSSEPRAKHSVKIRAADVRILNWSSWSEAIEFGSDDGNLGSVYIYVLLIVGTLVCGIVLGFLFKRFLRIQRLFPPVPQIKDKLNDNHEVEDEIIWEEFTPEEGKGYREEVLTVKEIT

human GM-CSFRα [2] = molecular target: T1, human GM-CSFRα; assay: cell-based or functional assay; remark: listed apart in the source
human GM-CSFRα [3] = molecular target: T1, human GM-CSFRα; assay: cell-based or functional assay; remark: listed apart in the source
[4] = molecular target: T2, recombinant purification-tagged human GM-CSF receptor α extracellular domain (human, UniProt P15509 23-320); assay: SPR (BIAcore 2000); IgG4 captured on protein A, tagged receptor ECD as analyte; 1:1 Langmuir fit
T2 construct: Amino acids 1 to 298 of the mature receptor; also called purified GM-CSFRα extracellular domain; soluble extracellular domain of GM-CSFRα; not shown: N-terminal purification tag; Flag-tagged
T2 sequence: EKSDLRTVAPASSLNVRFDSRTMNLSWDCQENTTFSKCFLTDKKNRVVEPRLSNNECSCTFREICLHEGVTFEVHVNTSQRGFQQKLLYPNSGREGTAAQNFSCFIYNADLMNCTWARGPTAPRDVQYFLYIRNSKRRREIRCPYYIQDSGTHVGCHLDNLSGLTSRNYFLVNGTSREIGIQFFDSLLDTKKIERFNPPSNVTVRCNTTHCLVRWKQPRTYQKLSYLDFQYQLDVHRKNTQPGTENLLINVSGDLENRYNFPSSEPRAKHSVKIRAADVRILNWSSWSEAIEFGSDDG

B1: Antibody 3 (28G5), parent antibody (antibody, V domains shown)
VH: QVQLVQSGAEVKKPGASVKVSCKISGHSLSELSIHWVRQTPTKGFEWMGGFDPEENEIVYAQRFQGRVTMTEDTSIDTAYLTLSSLRSDDTAVYYCSIVGSFSGWAFDYWGKGTMVTVSS
VL: QAVLTQPSSVSGAPGQRVTISCTGSGSNIGAPYDVSWYQQLPGTAPKLLIYHNNKRPSGVPDRFSASKSGTSASLAITGLQADDEADYYCQSYDSSLSGSVFGGGTKVTVL
IC50, cynomolgus granulocyte shape change assay (cynomolgus GM-CSFRα): ~5 nM

B2: Antibody 6, non-germlined IgG4 (antibody, V domains shown)
VH: QVQLVQSGAEVKKPGASVKVSCKISGHSLSELSIHWVRQTPTKGFEWMGGFDPEENEIVYAQRFQGRVTMTEDTSIDTAYLTLSSLRSDDTAVYYCSIVGSFSPLTLGLWGKGTMVTVSS
VL: QAVLTQPSSVSGAPGQRVTISCTGSGSNIGAPYDVSWYQQLPGTAPKLLIYHNNKRPSGVPDRFSASKSGTSASLAITGLQADDEADYYCATVEAGLSGSVFGGGTKLTVL
IC50, TF-1 proliferation assay (7 pM human GM-CSF) (human GM-CSFRα [1]): 0.97 pM
IC50, human granulocyte shape change assay (7 pM human GM-CSF) (human GM-CSFRα [2]): 13.3 pM
IC50, monocyte TNFα release assay (1 nM human GM-CSF) (human GM-CSFRα [3]): 0.043 nM
Kd [4]: 0.139 nM

B3: Antibody 19 (antibody, V domains shown)
VH: QVQLVQSGAEVKKPGASVKVSCKISGHSLSELSIHWVRQTPTKGFEWMGGFDPEENEIVYAQRFQGRVTMTEDTSIDTAYLTLSSLRSDDTAVYYCAIVGSVSRITYGFWGKGTMVTVSS
VL: QAVLTQPSSVSGAPGQRVTISCTGSGSNIGAPYDVSWYQQLPGTAPKLLIYHNNKRPSGVPDRFSASKSGTSASLAITGLQADDEADYYCQSYDSRNPHVIFGGGTKLTVL
notes: also called Ab19
IC50, TF-1 proliferation assay (7 pM human GM-CSF) (human GM-CSFRα [1]): 23.8 pM
Kd [4]: 0.388 nM

B4: Antibody 7 (antibody, V domains shown)
VH: QVQLVQSGAEVKKPGASVKVSCKISGHSLSELSIHWVRQTPTKGFEWMGGFDPEENEIVYAQRFQGRVTMTEDTSIDTAYLTLSSLRSDDTAVYYCAIVGSFSGPVYGLWGKGTMVTVSS
VL: QAVLTQPSSVSGAPGQRVTISCTGSGSNIGAPYDVSWYQQLPGTAPKLLIYHNNKRPSGVPDRFSASKSGTSASLAITGLQADDEADYYCQSYDSSLSGSVFGGGTKVTVL
notes: also called Antibody 07; Ab7
IC50, TF-1 proliferation assay (7 pM human GM-CSF) (human GM-CSFRα [1]): 93.8 pM
Kd [4]: 3.93 nM

B5: Antibody 12 (antibody, V domains shown)
VH: QVQLVQSGAEVKKPGASVKVSCKISGHSLSELSIHWVRQTPTKGFEWMGGFDPEENEIVYAQRFQGRVTMTEDTSIDTAYLTLSSLRSDDTAVYYCSIVGSFSGWAFDYWGKGTMVTVSS
VL: QAVLTQPSSVSGAPGQRVTISCTGSGSNIGAPYDVSWYQQLPGTAPKLLIYHNNKRPSGVPDRFSASKSGTSASLAITGLQADDEADYYCQSYDSEPTEIRFGGGTKLTVL
notes: also called Ab12
IC50, TF-1 proliferation assay (7 pM human GM-CSF) (human GM-CSFRα [1]): 246 pM
Kd [4]: 3.02 nM

B6: Antibody 11 (antibody, V domains shown)
VH: QVQLVQSGAEVKKPEASVKVSCKIPGHSLSELSIHWVRQTPTKGFEWMGGFDPEENEIVYAQRFQGRVTMTEDTSIDTAYLTLSSLRSDDTAVYYCAIVGSFSPITYGLWGKGTMVTVSS
VL: QAVLTQPSSVSGVPGQRVTISCTGSGSNIGAPYDVSWYQQLPGTAPKLLIYHNNKRPSGVPDRFSASKSGTSASLAITGLQADDEADYYCQSYDSSLSGSVFGGGTKVTVL
IC50, TF-1 proliferation assay (7 pM human GM-CSF) (human GM-CSFRα [1]): 9 pM
IC50, human granulocyte shape change assay (7 pM human GM-CSF) (human GM-CSFRα [2]): 90 pM

B7: Antibody 16 (antibody, V domains shown)
VH: QVQLVQSGAEVKKPGASVKVSCKISGHSLSELSIHWVRQTPTKGFEWMGGFDPEENEIVYAQRFQGRVTMTEDTSIDTAYLTLSSLRSDDTAVYYCSIVGSFSPLTMGLWGKGTMVTVSS
VL: QAVLTQPSSVSGAPGQRVTISCTGSGSNIGAPYDVSWYQQLPGTAPKLLIYHNNKRPSGVPDRFSASKSGTSASLAITGLQAEDEADYYCATSDEILSGSVFGGGTKVTVL
notes: also called Ab16
IC50, TF-1 proliferation assay (7 pM human GM-CSF) (human GM-CSFRα [1]): 12.8 pM
IC50, human granulocyte shape change assay (7 pM human GM-CSF) (human GM-CSFRα [2]): 16 pM
Kd [4]: 1.14 nM

B8: Antibody 14 (antibody, V domains shown)
VH: QVQLVQSGAEVKKPGASVKVSCKISGHSLSELSIHWVRQTPTKGFEWMGGFDPEENEIVYAQRFQGRVTMTEDTSIDTAYLTLSSLRSDDTAVYYCSILGSVTAWAFDYWGKGTMVTVSS
VL: QAVLTQPSSVSGAPGQRVTISCTGSGSNIGAPYDVSWYQQLPGTAPKLLIYHNNKRPSGVPDRFSASKSGTSASLAITGLQADDEADYYCQSYDSEDRMTEFGGGTKVTVL
notes: also called Ab14
IC50, TF-1 proliferation assay (7 pM human GM-CSF) (human GM-CSFRα [1]): 16.3 pM
Kd [4]: 0.502 nM

B9: Antibody 9 (antibody, V domains shown)
VH: QVQLVQSGAEVKKPGASVKVSCKISGHSLSELSIHWVRQTPTKGFEWMGGFDPEENEIVYAQRFQGRVTMTEDTSIDTAYLTLSSLRSDDTAVYYCAIVGSFSPVTYGLWGQGTMVTVSS
VL: QAVLTQPSSVSGAPGQRVTISCTGSGSNIGAPYDVSWYQQLPGTAPKLLIYHNNKRPSGVPDRFSASKSGTSASLAITGLQADDEADYYCQSYDSSLSGSVFGGGTKVTVL
IC50, TF-1 proliferation assay (7 pM human GM-CSF) (human GM-CSFRα [1]): 40.8 pM
IC50, human granulocyte shape change assay (7 pM human GM-CSF) (human GM-CSFRα [2]): 44 pM
IC50, monocyte TNFα release assay (1 nM human GM-CSF) (human GM-CSFRα [3]): 0.074 nM

B10: Antibody 10 (antibody, V domains shown)
VH: QVQLVQSGAEVKKPGASVKVSCKISGHSLSELSIHWVRQTPTKGFEWMGGFDPEENEIVYAQRFQGRVTMTEDTSIDTAYLTLSSLRSDDTAVYYCAIVGSFSGLAYRPWGKGTMVTISS
VL: QAVLTQPSSVSGAPGQRVTISCTGSGSNIGAPYDVSWYQQLPGTAPKLLIYHNNKRPSGVPDRFSASKSGTSASLAITGLQADDEADYYCQSYDSSLSGSVFGGGTKVTVL
notes: also called Ab10
IC50, TF-1 proliferation assay (7 pM human GM-CSF) (human GM-CSFRα [1]): 55.3 pM
IC50, human granulocyte shape change assay (7 pM human GM-CSF) (human GM-CSFRα [2]): 62 pM
IC50, monocyte TNFα release assay (1 nM human GM-CSF) (human GM-CSFRα [3]): 0.139 nM
Kd [4]: 1.5 nM

B11: Antibody 20 (antibody, V domains shown)
VH: QVQLVQSGAEVKKPGASVKVSCKISGHSLSELSIHWVRQTPTKGFEWMGGFDPEENEIVYAQRFQGRVTMTEDTSIDTAYLTLSSLRSDDTAVYYCSIVGSFSPLTLGLWGKGTMVTVSS
VL: QAVLTQPSSVSGAPGQRVTISCTGSGSNIGAPYDVSWYQQLPGTAPKLLIYHNNKRPSGVPDRFSASKSGTSASLAITGLQADDEADYYCATVDEALSGSVFGGGTKVTVL
notes: also called Ab20
IC50, TF-1 proliferation assay (7 pM human GM-CSF) (human GM-CSFRα [1]): 9.8 pM
IC50, human granulocyte shape change assay (7 pM human GM-CSF) (human GM-CSFRα [2]): 7.8 pM
Kd [4]: 0.127 nM

B12: Antibody 17 (antibody, V domains shown)
VH: QVQLVQSGAEVKKPGASVKVSCKISGHSLSELSIHWVRQTPTKGFEWMGGFDPEENEIVYAQRFQGRVTMTEDTSIDTAYLTLSSLRSDDTAVYYCSIVGSFSPLTMGLWGKGTMVTVSS
VL: QAVLTQPSSVSGAPGQRVTISCTGSGSNIGAPYDVSWYQQLPGTAPKLLIYHNNKRPSGVPDRFSASKSGTSASLAITGLQADDEADYYCATVEDGLSGSVFGGGTKVTVL
notes: also called Ab17
IC50, TF-1 proliferation assay (7 pM human GM-CSF) (human GM-CSFRα [1]): 14.3 pM
Kd [4]: 0.193 nM

B13: Antibody 8 (antibody, V domains shown)
VH: QVQLVQSGAEVKKPGASVKVSCKISGHSLSELSIHWVRQTPTKGFEWMGGFDPEENEIVYAQRFQGRVTMTEDTSIDTAYLTLSSLRSDDTAVYYCAIVGSFSPPAYRPWGKGTMVTVSS
VL: QAVLTQPSSVSGAPGQRVTISCTGSGSNIGAPYDVSWYQQLPGTAPKLLIYHNNKRPSGVPDRFSASKSGTSASLAITGLQADDEADYYCQSYDSSLSGSVFGGGTKVTVL
notes: also called Antibody 08; Ab8
IC50, TF-1 proliferation assay (7 pM human GM-CSF) (human GM-CSFRα [1]): 34.5 pM
Kd [4]: 0.552 nM

B14: Antibody 4 (antibody, V domains shown)
VH: QVQLVQSGAEVKKPGASVKVSCKISGHSLSELSIHWVRQTPTKGFEWMGGFDPEENEIVYAQRFQGRVTMTEDTSIDTAYLTLSSLRSDDTAVYYCAIVGSFSPPTYGYWGKGTMVTVSS
VL: QAVLTQPSSVSGAPGQRVTISCTGSGSNIGAPYDVSWYQQLPGTAPKLLIYHNNKRPSGVPDRFSASKSGTSASLAITGLQADDEADYYCQSYDSSLSGSVFGGGTKVTVL
notes: also called Antibody 04; Ab4
IC50, TF-1 proliferation assay (7 pM human GM-CSF) (human GM-CSFRα [1]): 48 pM
Kd [4]: 4.07 nM

B15: Antibody 15 (antibody, V domains shown)
VH: QVQLVQSGAEVKKPGASVKVSCKISGHSLSELSIHWVRQTPTKGFEWMGGFDPEENEIVYAQRFQGRVTMTEDTSIDTAYLTLSSLRSDDTAVYYCSIAGSIPGWAFDYWGKGTMVTVSS
VL: QAVLTQPSSVSGAPGQRVTISCTGSGSNIGAPYDVSWYQQLPGTAPKLLIYHNNKRPSGVPDRFSASKSGTSASLAITGLQADDEADYYCQSYDSQLISAAFGGGTKVTVL
notes: also called Ab15
IC50, TF-1 proliferation assay (7 pM human GM-CSF) (human GM-CSFRα [1]): 164 pM
Kd [4]: 1.03 nM

B16: Antibody 5 (antibody, V domains shown)
VH: QVQLVQSGAEVKKPGASVKVSCKISGHSLSELSIHWVRQTPTKGFEWMGGFDPEENEIVYAQRFQGRVTMTEDTSIDTAYLTLSSLRSDDTAVYYCAIVGSFSGYPYRPWGQGTMVTVSS
VL: QAVLTQPSSVSGAPGQRVTISCTGSGSNIGAPYDVSWYQQLPGTAPKLLIYHNNKRPSGVPDRFSASKSGTSASLAITGLQADDEADYYCQSYDSSLSGSVFGGGTKVTVL
notes: also called Antibody 05; Ab5
IC50, TF-1 proliferation assay (7 pM human GM-CSF) (human GM-CSFRα [1]): 9.3 pM
IC50, human granulocyte shape change assay (7 pM human GM-CSF) (human GM-CSFRα [2]): 30 pM
IC50, monocyte TNFα release assay (1 nM human GM-CSF) (human GM-CSFRα [3]): 0.067 nM
Kd [4]: 0.847 nM

Source: patent US20120141464A1 (ZENYTH OPERATIONS, published 2012)
